Here are results for 9 variants from paper PMC5440646, “T Cell Costimulation by CD6 Is Dependent on Bivalent Binding of a GADS/SLP-76 Complex” (Molecular and Cellular Biology, 2017).

B1: human CD6 fused to EGFP [human] / GRB2-related adaptor downstream of Shc (GADS), endogenous [human (endogenous in Jurkat)] (parent)
chain 1: MEAVAKFDFTASGEDELSFHTGDVLKILSNQEEWFKAELGSQEGYVPKNFIDIQFPKWFHEGLSRHQAENLLMGKEVGFFIIRASQSSPGDFSISVRHEDDVQHFKVMRDNKGNYFLWTEKFPSLNKLVDYYRTNSISRQKQIFLRDRTREDQGHRGNSLDRRSQGGPHLSGAVGEEIRPSMNRKLSDHPPTLPLQQHQHQPQPPQYAPAPQQLQQPPQQRYLQHHHFHQERRGGSLDINDGHCGTGLGSEMNAALMHRRHTDPVQLQAAGRVRWARALYDFEALEDDELGFHSGEVVEVLDSSNPSWWTGRLHNKLGLFPANYVAPMTR
chain 2: HPSPAPPDQLNTSSAESELWEPGERLPVRLTNGSSSCSGTVEVRLEASWEPACGALWDSRAAEAVCRALGCGGAEAASQLAPPTPELPPPPAAGNTSVAANATLAGAPALLCSGAEWRLCEVVEHACRSDGRRARVTCAENRALRLVDGGGACAGRVEMLEHGEWGSVCDDTWDLEDAHVVCRQLGCGWAVQALPGLHFTPGRGPIHRDQVNCSGAEAYLWDCPGLPGQHYCGHKEDAGAVCSEHQSWRLTGGADRCEGQVEVHFRGVWNTVCDSEWYPSEAKVLCQSLGCGTAVERPKGLPHSLSGRMYYSCNGEELTLSNCSWRFNNSNLCSQSLAARVLCSASRSLHNLSTPEVPASVQTVTIESSVTVKIENKESRELMLLIPSIVLGILLLGSLIFIAFILLRIKGKYALPVMVNHQHLPTTIPAGSNSYQPVPITIPKEVFMLPIQVQAPPPEDSDSGSDSDYEHYDFSAQPPVALTTFYNSQRHRVTDEEVQQSRFQMPPLEEGLEELHASHIPTANPGHCITDPPSLGPQYHPRSNSESSTSSGEDYCNSPKSKLPPWNPQVFSSERSSFLEQPPNLELAGTQPAFSAGPPADDSSSTSSGEWYQNFQPPPQPPSEEQFGCPGSPSPQPDSTDNDDYDDISAA
B2: human CD6 fused to EGFP [human] / T cell-specific adaptor protein (TSAd), endogenous [human (endogenous in Jurkat)] (parent)
chain 1: not shown
chain 2: B1 chain 2
B3: human CD6 fused to EGFP [human] / SH2 domain-containing leukocyte molecule of 76 kDa (SLP-76), endogenous [human (endogenous in Jurkat)] (parent)
chain 1: MALRNVPFRSEVLGWDPDSLADYFKKLNYKDCEKAVKKYHIDGARFLNLTENDIQKFPKLRVPILSKLSQEINKNEERRSIFTRKPQVPRFPEETESHEEDNGGWSSFEEDDYESPNDDQDGEDDGDYESPNEEEEAPVEDDADYEPPPSNDEEALQNSILPAKPFPNSNSMYIDRPPSGKTPQQPPVPPQRPMAALPPPPAGRNHSPLPPPQTNHEEPSRSRNHKTAKLPAPSIDRSTKPPLDRSLAPFDREPFTLGKKPPFSDKPSIPAGRSLGEHLPKIQKPPLPPTTERHERSSPLPGKKPPVPKHGWGPDRRENDEDDVHQRPLPQPALLPMSSNTFPSRSTKPSPMNPLPSSHMPGAFSESNSSFPQSASLPPYFSQGPSNRPPIRAEGRNFPLPLPNKPRPPSPAEEENSLNEEWYVSYITRPEAEAALRKINQDGTFLVRDSSKKTTTNPYVLMVLYKDKVYNIQIRYQKESQVYLLGTGLRGKEDFLSVSDIIDYFRKMPLLLIDGKNRGSRYQCTLTHAAGYP
chain 2: B1 chain 2

One assay covers variants of B1. Nature of the assay: co-immunoprecipitation (anti-CD6 IP), Western blot densitometry. Conditions: with GRB2-related adaptor downstream of Shc (GADS), Jurkat cells, 3 × 10^6 cells per sample, pervanadate treated, CD6 MAb (MEM-98), three experiments, read off a plot. In general terms: Immunoblotting shows a protein as a band on a membrane.
Take chain 2 Y612F: the response stood at 10 AU.
Regarding chain 2 Y612F Y645F, the response came to 0.9 AU.
Take chain 2 Y645F: the response amounted to 9.1 AU.

Variants of B2 are the subject of a further assay. The description is as above. Conditions: with T cell-specific adaptor protein (TSAd), Jurkat cells, 3 × 10^6 cells per sample, pervanadate treated, CD6 MAb (MEM-98), three experiments, read off a plot.
Turning to chain 2 Y612F, the response was determined as 8.8 AU.
For chain 2 Y612F Y645F, the response turned out to be 4.4 AU.
With chain 2 Y645F, the response was 5.2 AU.

The variants in the next assay derive from B3. The assay is described as above. Conditions: with SH2 domain-containing leukocyte molecule of 76 kDa (SLP-76), Jurkat cells, 3 × 10^6 cells per sample, pervanadate treated, CD6 MAb (MEM-98), three experiments, read off a plot.
For chain 2 Y612F, the response was determined as 6.4 AU.
Still for that read-out and setting: to chain 2 Y645F belongs 1.5 AU; to chain 2 Y612F Y645F, 0.5 AU.
